T1: full-length mature cynomolgus EMR2 (residues Q24-N816) with N-terminal aspartic acid/lysine epitope tag, … (cynomolgus monkey (Macaca fascicularis), UniProt A0A2K5WL23 21-816)
T1 sequence: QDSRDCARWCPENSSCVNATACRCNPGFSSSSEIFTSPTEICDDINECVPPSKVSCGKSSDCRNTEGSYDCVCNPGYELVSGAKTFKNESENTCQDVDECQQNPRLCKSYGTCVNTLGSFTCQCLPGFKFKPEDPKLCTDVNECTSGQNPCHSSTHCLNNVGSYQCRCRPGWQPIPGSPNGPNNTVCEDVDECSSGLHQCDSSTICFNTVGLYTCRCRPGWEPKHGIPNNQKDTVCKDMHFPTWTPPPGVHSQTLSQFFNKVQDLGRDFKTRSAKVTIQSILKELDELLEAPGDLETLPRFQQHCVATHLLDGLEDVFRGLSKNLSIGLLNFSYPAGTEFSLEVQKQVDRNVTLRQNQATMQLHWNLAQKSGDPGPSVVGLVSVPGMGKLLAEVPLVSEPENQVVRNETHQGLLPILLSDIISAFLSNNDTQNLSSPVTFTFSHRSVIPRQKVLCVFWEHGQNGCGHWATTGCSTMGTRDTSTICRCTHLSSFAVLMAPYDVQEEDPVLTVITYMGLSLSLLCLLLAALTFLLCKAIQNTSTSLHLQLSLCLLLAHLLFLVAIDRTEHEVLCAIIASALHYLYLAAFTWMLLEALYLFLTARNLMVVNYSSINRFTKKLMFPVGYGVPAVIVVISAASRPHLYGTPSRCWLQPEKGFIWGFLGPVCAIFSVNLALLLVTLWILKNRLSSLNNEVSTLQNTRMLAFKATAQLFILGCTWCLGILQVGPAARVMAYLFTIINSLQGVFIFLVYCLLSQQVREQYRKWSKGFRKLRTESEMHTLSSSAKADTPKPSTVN

T2: full-length mature human CD97 (residues Q21-I845) with N-terminal aspartic acid/lysine epitope tag, … (human, UniProt P48960 21-835)
T2 sequence (looked up): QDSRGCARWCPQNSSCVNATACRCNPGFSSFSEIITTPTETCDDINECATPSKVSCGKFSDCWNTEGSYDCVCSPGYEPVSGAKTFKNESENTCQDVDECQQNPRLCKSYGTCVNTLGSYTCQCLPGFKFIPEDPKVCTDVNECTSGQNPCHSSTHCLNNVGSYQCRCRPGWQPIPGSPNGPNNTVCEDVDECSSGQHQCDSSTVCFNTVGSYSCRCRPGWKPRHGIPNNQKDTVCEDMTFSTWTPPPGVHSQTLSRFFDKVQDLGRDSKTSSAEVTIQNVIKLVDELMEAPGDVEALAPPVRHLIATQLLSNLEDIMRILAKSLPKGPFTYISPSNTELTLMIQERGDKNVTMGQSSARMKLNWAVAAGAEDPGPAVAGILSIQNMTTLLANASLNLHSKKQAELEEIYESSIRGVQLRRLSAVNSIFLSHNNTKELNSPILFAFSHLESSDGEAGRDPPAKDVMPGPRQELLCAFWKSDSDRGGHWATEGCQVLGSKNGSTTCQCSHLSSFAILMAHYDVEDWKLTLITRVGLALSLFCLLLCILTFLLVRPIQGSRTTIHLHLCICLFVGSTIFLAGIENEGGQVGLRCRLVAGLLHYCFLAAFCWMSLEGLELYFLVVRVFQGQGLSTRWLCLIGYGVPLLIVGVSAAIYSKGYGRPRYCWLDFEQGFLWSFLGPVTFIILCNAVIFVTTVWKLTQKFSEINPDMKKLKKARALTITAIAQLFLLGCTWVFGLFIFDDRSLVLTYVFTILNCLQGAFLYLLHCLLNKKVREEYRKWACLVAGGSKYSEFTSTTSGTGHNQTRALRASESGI

T3: full-length mature human EMR2 (residues Q24-N823) with N-terminal aspartic acid/lysine epitope tag, … (human, UniProt Q9UHX3 24-823)
T3 sequence: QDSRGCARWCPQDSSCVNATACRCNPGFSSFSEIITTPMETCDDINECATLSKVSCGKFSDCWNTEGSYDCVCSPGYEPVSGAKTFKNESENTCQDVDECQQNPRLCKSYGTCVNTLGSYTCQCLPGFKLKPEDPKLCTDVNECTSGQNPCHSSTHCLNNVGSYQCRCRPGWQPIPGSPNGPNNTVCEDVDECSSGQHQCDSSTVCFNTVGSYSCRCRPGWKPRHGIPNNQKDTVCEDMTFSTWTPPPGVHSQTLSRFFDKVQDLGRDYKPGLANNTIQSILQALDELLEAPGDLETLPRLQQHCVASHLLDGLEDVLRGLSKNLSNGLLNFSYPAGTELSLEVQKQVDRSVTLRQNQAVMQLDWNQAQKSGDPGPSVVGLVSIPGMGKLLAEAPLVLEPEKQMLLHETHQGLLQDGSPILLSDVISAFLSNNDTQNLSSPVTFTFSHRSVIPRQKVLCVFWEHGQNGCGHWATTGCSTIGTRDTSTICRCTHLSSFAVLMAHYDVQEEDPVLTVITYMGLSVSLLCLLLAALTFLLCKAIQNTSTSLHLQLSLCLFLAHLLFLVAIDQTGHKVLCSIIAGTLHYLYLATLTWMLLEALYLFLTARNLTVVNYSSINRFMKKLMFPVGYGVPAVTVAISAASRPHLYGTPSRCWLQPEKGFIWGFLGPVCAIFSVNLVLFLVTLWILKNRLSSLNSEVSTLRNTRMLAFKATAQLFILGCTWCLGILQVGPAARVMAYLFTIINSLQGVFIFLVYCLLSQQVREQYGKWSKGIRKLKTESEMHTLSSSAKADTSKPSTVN

B1: SC93.255 (antibody, V domains shown)
VH: QVQLQQSDAELVKPGSSVKISCKVSGFTFTDHTIHWMKQRPEQGLEWIGYIYPRDGNTKYNEKFTGKATLTADRSSSTAYMQLNSLTSEDSAVYFCASSNWAQWYFDIWGTGTTVTVSS
VL: DIQMTQSSSYLSVSLGGRVTITCKASDHINNWLAWYQQKPGNAPRLLIFGATSLETGVPSRFSGSGSGKDYTLSITSLQSEDVGTYYCQQYWSIPYTFGGGTKLEIK
notes: Murine hybridoma antibody with a kappa light chain
B2: SC93.256 (antibody, IgG2a, V domains shown)
VH: EVKLEESGGGLVQPGGSMKLSCAASGFTFSDAWMDWVRQSPEKGLEWVAEIRSKVNNHETYYAESVKGRFTISRDDSKSSVYLQMNSLRAEDTGIYYCIRNDYFDYWGQGTTLTVSS
VL: DIQMTQTTSSLSASLGDRVTISCSASQGIRNYLNWYQQKPDGTVKLLIYYTSRLHSGVPSRFSGSGSGTDYSLTISNLEPEDIATYYCQQYGKLPYTFGGGTKLEIK
notes: murine, IgG2a
B3: SC93.253 (antibody, V domains shown)
VH: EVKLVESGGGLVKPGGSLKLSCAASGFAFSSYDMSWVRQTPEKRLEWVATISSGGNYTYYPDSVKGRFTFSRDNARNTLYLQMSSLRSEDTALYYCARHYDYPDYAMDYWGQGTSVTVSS
VL: DIVMTQSQKFMSTSVGDRIIITCKASQNVRTTVDWYQQKPGQSPKVLISLASNRHTGVPDRFTGSGSGTDFTLTISNVQSEDLADYFCLQHRNYPLTFGGGTKLEIK
notes: as for B1

How the values were obtained:
[1] = molecular target: T1, full-length mature cynomolgus EMR2 …; test: cell-based or functional assay
[2] = molecular target: T2, full-length mature human CD97 (residues …); test: cell-based or functional assay
[3] = molecular target: T3, full-length mature human EMR2 (residues …); test: cell-based or functional assay
[4] = molecular target: T1, full-length mature cynomolgus EMR2 …; test: flow cytometry on transduced HEK293T; 293 naive MFI 269
Procedure: (§1) The exemplary antibodies were also tested using flow cytometry to determine their ability to associate with hEMR2, cEMR2 and CD97 expressed on the surface of cells.

[5] = molecular target: T2, full-length mature human CD97 (residues …); test: as above
Procedure: as §1

[6] = molecular target: T3, full-length mature human EMR2 (residues …); test: as above
Procedure: as §1

[7] = molecular target: T1, full-length mature cynomolgus EMR2 …; test: flow cytometry on transduced HEK293T; 293 naive MFI 109
Procedure: as §1

[8] = molecular target: T2, full-length mature human CD97 (residues …); test: as above
Procedure: as §1

[9] = molecular target: T3, full-length mature human EMR2 (residues …); test: as above
Procedure: as §1

[10] = molecular target: T1, full-length mature cynomolgus EMR2 …; test: flow cytometry on transduced HEK293T; 293 naive MFI 99.5
Procedure: as §1

[11] = molecular target: T2, full-length mature human CD97 (residues …); test: as above
Procedure: as §1

[12] = molecular target: T3, full-length mature human EMR2 (residues …); test: as above
Procedure: as §1

Row | Binder | % live, FAB-saporin killing assay [1] | % live, FAB-saporin killing assay [2] | % live, FAB-saporin killing assay [3] | FC MFI [4] | FC MFI [5] | FC MFI [6] | FC MFI [7] | FC MFI [8] | FC MFI [9] | FC MFI [10] | FC MFI [11] | FC MFI [12]
1 | B1 | 9.63% | 9.09% | 12.1% | 43800 | 43300 | 36400 |  |  |  |  |  | 
2 | B2 | 12.3% | 92.4% | 12.5% |  |  |  | 37600 | 88.3 | 42600 |  |  | 
3 | B3 | 11.1% | 92.2% | 13.4% |  |  |  |  |  |  | 48700 | 328 | 38300

From US20180327506A1 (AbbVie / Abbott, published 2018)
